# Assay results published in paper doi:10.1101/2020.02.12.945170 (2020).
# Square brackets hold non-standard residues; d marks the D form. Ends that are not written are not given here. * marks the point of attachment. Biotin = O=C1N[C@H]2[C@H](CS[C@H]2CCCCC(=O)*)N1; pY = N[C@@H](Cc1ccc(OP(=O)(O)O)cc1)C(=O)O
# B1: ZAP70 tSH2-GFP (tandem SH2 domains of human ZAP70, amino acids 1-264, with C-terminal GFP) (domain or fragment)
# chain: MPDPAAHLPFFYGSISRAEAEEHLKLAGMADGLFLLRQCLRSLGGYVLSLVHDVRFHHFPIERQLNGTYAIAGGKAHCGPAELCEFYSRDPDGLPCNLRKPCNRPSGLEPQPGVFDCLRDAMVRDYVRQTWKLEGEALEQAIISQAPQVEKLIATTAHERMPWYHSSLTREEAERKLYSGAQTDGKFLLRPRKEQGTYALSLIYGKTVYHYLISQDKAGKYCIPEGTKFDTLWQLVEYLKLKADGLIYCLKEACPNSSASNASG
# What was measured:
# [1] = target: B1; assay: SPR; 37°C
# [2] = target: B1; assay: SPR
# [3] = target: B1; assay: SPR; 37°C
# [4] = target: B1; assay: SPR
# [5] = target: B1; assay: single-particle tracking TIRF
# [6] = target: T1, Avi-CD3ζ ITAM3 (full intracellular tail of CD3ζ, amino acids 52-164, all tyrosines mutated to Ala except the … (UniProt P20963-1 52-164, biotin on the Avitag; tyrosines of ITAM3 phosphorylated in vitro by Lck); assay: SPR; phosphorylated on ITAM3; from kobs plot intercept
# [7] = target: T1, Avi-CD3ζ ITAM3 (full intracellular tail …); assay: SPR; phosphorylated on ITAM3; dissociation phase fit
# T1 sequence (P20963 52-164, change not shown): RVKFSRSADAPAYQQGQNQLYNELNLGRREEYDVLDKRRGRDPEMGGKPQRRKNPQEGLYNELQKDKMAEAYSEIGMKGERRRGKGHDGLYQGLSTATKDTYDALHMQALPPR
Binder,Kd [1],Kd [2],koff [3],koff [4],koff [5],koff [6],koff [7]
Biotin-GKGHDLL[pY]QGLSTATKDTYDALHMQ [ITAM3 N (N-monophosphorylated CD3ζ ITAM3 peptide)],20.7 µM,20.7 µM,5.5 s⁻¹,5.5 s⁻¹,4.8 s⁻¹,–,–
Biotin-GKGHDLLYQGLSTATKDT[pY]DALHMQ [ITAM3 C (C-monophosphorylated CD3ζ ITAM3 peptide)],7.52 µM,7.52 µM,–,–,–,–,–
B1,–,–,–,–,–,0.21 s⁻¹,0.25 s⁻¹
